Here are results for seven substances from publication PMC5240623.

A word on the Kd: it is the free concentration of one partner at which half of the binding sites on the other are occupied at equilibrium, for simple one-to-one binding. As a reminder, the stoichiometry N is a count of units in the complex or per binding partner.

In data set [1] the target is EmMBD2/3a coiled-coil domain (amino acids 324–354), thioredoxin fusion (E. muelleri). Briefly: ITC; fusion peptides left uncleaved; 50 mM Hepes pH 7.4, 150 mM NaCl, 298 K; MicroCal Auto-iTC200, 20–24 injections; HsMBD2 (1.8 mM), EmGATAD2A/B (2.74 mM), DmGATAD2A/B (2.5 mM) injected into HsGATAD2A (100 μM), EmMBD2/3 (270 μM), DmMBD2/3 (250 μM); one-site binding model. (Isothermal titration calorimetry measures the heat released or taken up as one component is titrated into another.)

The subject of data set [2] is EmMBD2/3a coiled-coil domain (amino acids 324–354), thioredoxin fusion. The data set is described as follows: AUC; sedimentation velocity, 40,000 rpm, 293 K, 20 mM Tris pH 8.0, 150 mM NaCl; thioredoxin fusions left uncleaved; each peptide in isolation and a 100 μM mixture.
Data set [3] concerns EmMBD2/3 MBD (Ephydatia muelleri). The data set is described as follows: SPR. As to conditions: SPR: 10 mM HEPES pH 7.4, 50 mM NaCl, 3 mM MgCl2, 0.1 mM EDTA, 1 mM DTT, 0.05% polysorbate 20, temperature not stated, NMR conditions not in material.
For data set [4], the target named is EmGATAD2A/B coiled-coil domain (amino acids 58–100), thioredoxin fusion (E. muelleri). The data set is described as follows: ITC; fusion peptides left uncleaved; 50 mM Hepes pH 7.4, 150 mM NaCl, 298 K; MicroCal Auto-iTC200, 20–24 injections; HsMBD2 (1.8 mM), EmGATAD2A/B (2.74 mM), DmGATAD2A/B (2.5 mM) injected into HsGATAD2A (100 μM), EmMBD2/3 (270 μM), DmMBD2/3 (250 μM); one-site binding model.

Data set [5] concerns the target HsGATAD2A coiled-coil domain, uncleaved fusion peptide (human) (UniProt Q86YP4). The data set is described as above.
For data set [6], the target named is DmMBD2/3 coiled-coil domain (amino acids 309–339), thioredoxin fusion (D. melanogaster). Described as above.
Chain of DmMBD2/3 coiled-coil domain (amino acids 309–339), thioredoxin fusion (D. melanogaster) (main, as listed by the source): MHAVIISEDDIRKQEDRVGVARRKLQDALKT

Chain of HsGATAD2A coiled-coil domain, uncleaved fusion peptide (human) (Q86YP4 137-178): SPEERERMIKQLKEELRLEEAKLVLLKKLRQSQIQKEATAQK
Chain of HsMBD2 coiled-coil domain, uncleaved fusion peptide (Q9UBB5 360-393): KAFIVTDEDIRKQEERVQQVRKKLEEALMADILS

For the substance “EmGATAD2A/B coiled-coil domain (amino acids 58–100), thioredoxin fusion (domain or fragment)”, in data set [1], the Kd was 9.2 µM, the dH is -9.8 kcal/mol and the stoichiometry N was found to be 0.8.
In the case of “EmGATAD2A/B coiled-coil domain (amino acids 58–100), thioredoxin fusion”, the “percent of heterodimeric species in a 100 μM mixture” value in data set [2] was “heterodimeric (45.1 kDa, 58.1%)”.
“GAGGCGCTCGGCGGCAG (double strand) [CpG(x3) 17 bp, 3'-biotin]” yielded a Kd in data set [3] of 65 µM.
For “HsMBD2 coiled-coil domain, uncleaved fusion peptide (from UniProt Q9UBB5 360-393) (domain or fragment)”, in data set [4], the Kd is 1.3 µM, the dH is -8.92 kcal/mol and the stoichiometry N came to 1.1.
With “EmMBD2/3a coiled-coil domain (amino acids 324–354), thioredoxin fusion (domain or fragment)”, in data set [5], the Kd was 0.38 µM, the dH is -8.99 kcal/mol and the stoichiometry N worked out at 1.3.
The substance “GAGGCGCTCGGCGGCAG (double strand) [mCpG 17 bp, 3'-biotin]” showed a dissociation constant (Kd) in data set [3] (5-methyl-C at C9 of strand 1 and C8 of strand 2 (central CpG), two other CpGs unmethylated) of 0.43 µM.
As for “DmGATAD2A/B coiled-coil domain (amino acids 183–223), thioredoxin fusion (domain or fragment)”, in data set [6], the Kd amounted to 7.4 µM, the dH is -27.6 kcal/mol and the stoichiometry N was 1.
